# In patent publication US20080241172A1 (CENTRE NATIONAL DE LA RECHERCHE SCIENTIFIQUE, published 2008):
# Positions count from the first letter of the chain named. Names may count otherwise.
# B1: Torpedo AChET mutant S19C (containing two cysteines at positions 19 and 37) (enzyme)
# chain: DDDSELLVNTKSGKVMRTRIPVLSSHISAFLGIPFAEPPVGNMRFRRPEPKKPWSGVWNASTYPNNCQQYVDEQFPGFPGSEMWNPNREMSEDCLYLNIWVPSPRPKSATVMLWIYGGGFYSGSSTLDVYNGKYLAYTEEVVLVSLSYRVGAFGFLALHGSQEAPGNMGLLDQRMALQWVHDNIQFFGGDPKTVTLFGESAGRASVGMHILSPGSRDLFRRAILQSGSPNCPWASVSVAEGRRRAVELRRNLNCNLNSDEDLIQCLREKKPQELIDVEWNVLPFDSIFRFSFVPVIDGEFFPTSLESMLNAGNFKKTQILLGVNKDEGSFFLLYGAPGFSKDSESKISREDFMSGVKLSVPHANDLGLDAVTLQYTDWMDDNNGIKNRDGLDDIVGDHNVICPLMHFVNKYTKFGNGTYLYFFNHRASNLVWPEWMGVIHGYEIEFVFGLPLVKELNYTAEEEALSRRIMHYWATFAKTGNPNEPHSQESKWPLFTTKEQKFIDLNTEPIKVHQRLRVQMCVFWNQFLPKLLNATETIDEAERQWKTEFHRWSCYMMHWKNQFDQYSRHENCAEL
# notes: It may include a signal peptide; also called mutated torpedo AChE
# B2: wild type Torpedo AChET (enzyme)
# chain: B1 chain with C554S
# notes: The wild type is built by undoing that change; Expressed in transfected COS cells; cell extracts and medium were analysed; also called wild type AChET subunits
# B3: Torpedo AChET mutant T12C (enzyme)
# chain: B1 chain with T547C, C554S
# B4: Torpedo AChET mutant with A6 of the t peptide replaced by a cysteine (enzyme)
# chain: B1 chain with A541C, C554S
# B5: Torpedo AChET mutant with M21 of the t peptide replaced by a cysteine, with mutation of C37 (C37S) (enzyme)
# chain: B1 chain with C554S, M556C, C572S
# notes: also called M21 with C37S
# B6: Torpedo AChET mutant with T12 of the t peptide replaced by a cysteine, with mutation of C37 (C37S) (enzyme)
# chain: B1 chain with T547C, C554S, C572S
# notes: also called T12 with C37S
# B7: Torpedo AChET mutant S19C/C37S (enzyme)
# chain: B1 chain with C572S
# notes: also called S19 with C37S
# B8: Torpedo AChET mutant with A6 of the t peptide replaced by a cysteine, with mutation of C37 (C37S) (enzyme)
# chain: B1 chain with A541C, C554S, C572S
# notes: also called A6 with C37S
# B9: Torpedo AChET mutant with H34 of the t peptide replaced by a cysteine (enzyme)
# chain: B1 chain with C554S, H569C
# B10: Torpedo AChET mutant with M22 of the t peptide replaced by a cysteine, with mutation of C37 (C37S) (enzyme)
# chain: B1 chain with C554S, M557C, C572S
# notes: also called M22 with C37S
# B11: Torpedo AChET mutant with residue 3 of the t peptide replaced by a cysteine, with mutation of C37 (C37S) (enzyme)
# chain: B1 chain with I538C, C554S, C572S
# notes: also called 13 (printed; read as I3) with C37S
# B12: Torpedo AChET mutant with M21 of the t peptide replaced by a cysteine (enzyme)
# chain: B1 chain with C554S, M556C
# B13: Torpedo AChET mutant with residue 3 of the t peptide replaced by a cysteine (enzyme)
# chain: B1 chain with I538C, C554S
# notes: also called 13 (printed; read as I3)
# B14: Torpedo AChET mutant with M22 of the t peptide replaced by a cysteine (enzyme)
# chain: B1 chain with C554S, M557C
# B15: Torpedo AChET mutant with H34 of the t peptide replaced by a cysteine, with mutation of C37 (C37S) (enzyme)
# chain: B1 chain with C554S, H569C, C572S
# notes: also called H34 with C37S
# B16: Torpedo AChET mutant C37S (enzyme)
# chain: B1 chain with C554S, C572S
# Legend:
# [1] = target: the molecule itself; assay: homodimers from transfected COS cells; sedimentation in sucrose gradients
# Experimental: (§1) COS cells were transfected by the DEAE-dextran method, as previously described (Bon et al., 1997), using 4 μg of DNA encoding the AChE catalytic subunit and 4 μg of DNA encoding QN or PRAD-deleted QN, per 100 mm dish. Because Torpedo AChE folds into its active conformation at 27° C., but not at 37° C., the cells were incubated for two days at 37° C. after transfection, then transferred to 27° C. and maintained at this temperature for 3-4 days, in a medium containing 10% Nuserum (Inotech, Dottikon, Switzerland), which had been pretreated with 10⁻⁶ M soman to inactivate serum choline sterases.
# (§2) Centrifugation was performed in 5-20% sucrose gradients (50 mM Tris-HCl, pH 7.5, 50 mM MgCl₂, either in the presence of 0.2% Brij-97 or in the presence of 0.2% Triton X-100) in a Beckman SW41 rotor, at 36,000 rpm, for 18 h at 6° C. The gradients contained Escherichia coli β-galactosidase (16 S) and alkaline phosphatase (6.1 S) as internal sedimentation standards (Bon et al., 1997). Amphiphilic molecules generally sediment faster in the presence of Triton X100 than of Brij-97, providing an indication on their amphiphilic character.
# [2] = target: the molecule itself; assay: homo-oligomers from transfected COS cells; sedimentation in sucrose gradients
# Experimental: as §1, §2
# [3] = target: the molecule itself; assay: homo-oligomers from transfected COS cells; sedimentation in sucrose gradients (tetramers still formed, dimers not)
# Experimental: as §1, §2
Protein,binding result [1],also measured
B1,binds,–
B2,–,binding result [2]: binds
B3,–,binding result [2]: binds
B4,binds,–
B5,binds,–
B6,binds,–
B7,binds,–
B8,binds,–
B9,binds,–
B10,binds,–
B11,binds,–
B12,binds,–
B13,binds,–
B14,binds,–
B15,binds,–
B16,–,binding result [3]: binds
